# Literature values as cited in patent US6051590A, “Immunosuppressant tricyclic compounds” (Merck & Co., Inc., priority 1999, dated 2000).
# Target: T1, Kv 1.3 channels (CHO cells transfected with Kv 1.3) (Homo sapiens, UniProt P22001)
# T1 construct: expressed in transfected cells; host or cells: CHO cells
# Details: stated in the method for the reference blocker
# T1 sequence (P22001 whole entry): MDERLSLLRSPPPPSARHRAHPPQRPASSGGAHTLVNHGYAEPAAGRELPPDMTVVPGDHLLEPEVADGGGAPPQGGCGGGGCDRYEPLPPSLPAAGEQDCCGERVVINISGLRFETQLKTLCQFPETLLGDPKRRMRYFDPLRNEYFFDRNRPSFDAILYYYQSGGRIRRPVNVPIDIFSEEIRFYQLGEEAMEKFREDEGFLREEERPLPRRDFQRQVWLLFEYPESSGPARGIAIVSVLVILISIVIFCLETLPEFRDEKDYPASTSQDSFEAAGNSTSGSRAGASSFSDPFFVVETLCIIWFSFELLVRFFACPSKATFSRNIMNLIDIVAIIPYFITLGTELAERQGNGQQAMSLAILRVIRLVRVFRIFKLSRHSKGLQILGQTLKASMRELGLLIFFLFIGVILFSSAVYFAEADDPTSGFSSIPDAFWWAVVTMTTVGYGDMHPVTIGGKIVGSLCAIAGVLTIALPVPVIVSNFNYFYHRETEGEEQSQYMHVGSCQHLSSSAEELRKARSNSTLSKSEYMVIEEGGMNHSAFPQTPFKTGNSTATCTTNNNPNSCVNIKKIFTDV
substance,measurement,value
"margatoxin (TIINVKCTSPKQCLPPCKAQFGQSAGAKCMNGKCKCYPH; UniProt P40755 1-39, looked up)",IC50,0.1 nM
